The text below walks through data of article PMC10345426, “Structural polymorphism of the PH domain in TFIIH” (Bioscience Reports, 2023).

Experiment [1] deals with TFIIH p62 PH (Homo sapiens) (UniProt P32780). The settings on record: cited from earlier work.
For experiment [2] the target is unchanged. As to conditions: cited from earlier work. The source holds these as a separate data set.
Experiment [3] addresses TFIIH Tfb1 PH (Saccharomyces cerevisiae) (UniProt P32776). As to conditions: cited from earlier work.
Experiment [4] addresses T1, PH domain of fission yeast (Schizosaccharomyces pombe) Tfb1, residues 1-108 (Schizosaccharomyces pombe, UniProt O13745 1-108).
T1 construct: General transcription and DNA repair factor IIH subunit tfb1 (spTfb1), Schizosaccharomyces pombe, UniProt name TFB1_SCHPO, N-terminal PH domain, residues 1-108; 15N-labelled in the NMR titration; Residues of the vector may be left at the N-terminus after thrombin cleavage (surmised); also called spPH; spPH domain; source: E. coli BL21-Gold (DE3), pET15b, purified (His-tag resin, thrombin …)
T1 sequence (looked up): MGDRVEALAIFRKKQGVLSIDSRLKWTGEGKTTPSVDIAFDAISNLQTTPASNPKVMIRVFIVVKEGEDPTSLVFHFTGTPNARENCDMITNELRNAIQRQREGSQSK
The experiment is described as follows: ITC; VP-ITC; syringe 300 uM peptide, cell 2 ml of 30 uM spPH domain; 25 x 20 ul injections; 20 mM potassium phosphate pH 6.8, 20°C. The settings on record: both partners purified. Background: Isothermal titration calorimetry measures the heat released or taken up as one component is titrated into another.

Read-outs that look alike come from different tables or passages of the source.

TFIIH p62 PH (Homo sapiens), sequence (P32780 1-108): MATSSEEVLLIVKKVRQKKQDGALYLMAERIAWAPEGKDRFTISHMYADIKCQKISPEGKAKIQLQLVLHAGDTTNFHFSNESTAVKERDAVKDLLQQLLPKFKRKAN
TFIIH Tfb1 PH (Saccharomyces cerevisiae), sequence (P32776 1-115): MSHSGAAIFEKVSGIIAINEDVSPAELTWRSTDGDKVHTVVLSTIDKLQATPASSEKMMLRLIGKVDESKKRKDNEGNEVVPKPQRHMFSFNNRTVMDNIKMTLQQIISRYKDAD

The term Kd denotes a measure of binding affinity in units of concentration. In the case of “hXPC acidic string (from UniProt Q01831)”, the Kd in experiment [1] is 58 nM.
Regarding “TFIIEα acidic domain (from UniProt P29083)”, the Kd in experiment [2] is 95 nM.
Consider “scRad4 acidic string (from UniProt P14736)”, for which, in experiment [3], the Kd is 50 nM.

B1: spRhp41(4-22) peptide, N-terminal acidic string of fission yeast Rhp41 (peptide, UniProt Q10445 4-22, looked up)
peptide: DEDNTYSDDEEWLDLDLGL
notes: Rhp41 (homologue of human XPC and S. cerevisiae Rad4), Schizosaccharomyces pombe, residues 4-22 (holds Trp15, Leu16, Leu18, Leu20, Leu22); source: synthetic peptide, bought: GenScript
As for B1, binding in experiment [4] was characterised by a dissociation constant (Kd) of 52.1 ± 13.5 nM.

B2: spTfa1(332-350) peptide, acidic segment of fission yeast Tfa1 (peptide, UniProt Q9P3W1 332-350, looked up)
peptide: DSENVDDEEDDDFLDVTTA
notes: source: synthetic peptide, bought: GenScript
As to B2, binding in experiment [4] was characterised by a dissociation constant (Kd) of 148 ± 41.3 nM.

B3: spTfa1(416-434) peptide, C-terminal acidic segment of fission yeast Tfa1 (peptide, UniProt Q9P3W1 416-434, looked up)
peptide: NGFNEDDEDDEDEADFEDV
notes: Tfa1 (homologue of human TFIIEalpha), Schizosaccharomyces pombe, residues 416-434; source: synthetic peptide, bought: GenScript
As to B3, the affinity in experiment [4], expressed as Kd, was 12.4 ± 6.5 nM.
